Measurements from paper PMC6013222, “SNPs in inflammatory genes CCL11, CCL4 and MEFV in a fibromyalgia family study” (PLoS ONE, 2018).

T1: Recombinant human CCL4 (MIP-1β), wild type (human), P13236
T1 chain: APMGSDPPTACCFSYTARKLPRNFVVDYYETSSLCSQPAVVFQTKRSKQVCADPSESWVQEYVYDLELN


How the values were obtained:
[1] = target: T1, Recombinant human CCL4 (MIP-1β), wild …; assay: SEC; Superdex 200 10/30 column, 0.5 mL/min in PBS, UV detection at 214 and 280 nm; conditions: remark: other sources report otherwise
[2] = target: the molecule itself; assay: as above

stoichiometry N [1]	Binder	stoichiometry N [2]
2	Recombinant human CCL4 (MIP-1β), wild type, P13236 24-92 (ligand) APMGSDPPTACCFSYTARKLPRNFVVDYYETSSLCSQPAVVFQTKRSKQVCADPSESWVQEYVYDLELN	
	Recombinant human CCL4 variant (S80T) (ligand, UniProt P13236 24-92, looked up, C-C motif chemokine 4 (CCL4, MIP-1β), human, natural variant Ser80Thr from SNP rs1719152, recombinant; On SEC two broad peaks: a high molecular weight aggregate (>300 kDa) and a 16 kDa dimer; also called varCCL4; variant CCL4; source: bought: Kingfisher Biotech, Inc) APMGSDPPTACCFSYTARKLPRNFVVDYYETSSLCSQPAVVFQTKRSKQVCADPSETWVQEYVYDLELN	2
